Positions of bridges follow the written chain, without caps; N, C: chain ends. Non-standard residues stand in square brackets, D forms with d. Primed or numbered codes have the meaning given here. *: point of attachment. mXylyl(3) = bridging moiety between the two residues given in brackets; mXylyl″ = bridging moiety between the two marked residues; mXylyl = bridging moiety between residues (mXylyl(i,j)); Ala(1H-tetrazol-5-yl) = N[C@@H](Cc1nnn[nH]1)C(=O)O; Trp(7-aza) = N[C@@H](Cc1c[nH]c2ncccc12)C(=O)O; mXylyl(4) = bridging moiety between residues; Trp(1-Me) = Cn1cc(C[C@H](N)C(=O)O)c2ccccc21; pXylyl = bridging moiety between residues; Phe(3-Cl) = N[C@@H](Cc1cccc(Cl)c1)C(=O)O; Tiq1c(1S) = O=C(O)[C@H]1NCCc2ccccc21; dPhg = N[C@@H](C(=O)O)c1ccccc1; Phg = N[C@H](C(=O)O)c1ccccc1; Tle = CC(C)(C)[C@H](N)C(=O)O; NMeS = CN[C@@H](CO)C(=O)O; hCys = N[C@@H](CCS)C(=O)O; Heptanoyl = CCCCCCC(=O)*; Nle = CCCC[C@H](N)C(=O)O; Nva = CCC[C@H](N)C(=O)O; Sar = CNCC(=O)O
The binders below were run against human C5 protein (human, UniProt P01031 19-673; P01031 678-1676) (assay: cell-based or functional assay).

Binder | Avg. IC50, human hemolysis assay (complete human sera) [µM]
Ac-Y[Nva]C[Phg]T[Trp(7-aza)]EY[NMeS]HC[Nva]-NH2 (linker 3-11 via mXylyl(4)) [R3113] | > 5
Ac-[Nva]CYNN[Tle]E[Trp(7-aza)]ECP[Phg][Tle]-NH2 (cysteine pairing not given here) [R3126] | > 3
Ac-[Nva][hCys][Phg]T[Trp(7-aza)]EY[NMeS]H[hCys][Nva]-NH2 (linker 2-10 via mXylyl(4)) [R3107] | > 75
Ac-[Nva][hCys][Phg]T[Trp(7-aza)]EY[NMeS]HC[Nva]-NH2 (linker 2-10 via mXylyl(4)) [R3103] | > 25
Ac-[Nva]C[Phg]T[dW]EY[NMeS]HC[Nva]-NH2 (linker 2-10 via mXylyl″) [R3132] | > 100
Ac-[Nva]CYNN[Tle]E[Trp(7-aza)]ECP[Phg][Tle]-NH2 (linker 2-10 via mXylyl(4)) [R3127] | > 75
Ac-[Nva]C[Phg]T[Trp(1-Me)]EY[NMeS]AC[Nva]-NH2 (linker 2-10 via mXylyl(4)) [R3109] | > 100
Ac-[Nva]C[Phg]T[Trp(7-aza)]EYPHC[Nva]-NH2 (linker 2-10 via mXylyl(4)) [R3102] | 0.978
Ac-[Nva]C[Phg][dA][Trp(7-aza)]EY[NMeS]HC[Nva]-NH2 (linker 2-10 via mXylyl″) [R3133] | > 75
Ac-[Nva]CYNN[Tle]ECEYP[Phg][Tle]-NH2 (linker 2-8 via mXylyl(4)) [R3129] | > 100
Ac-CVERFCWEF-NH2 (linker 1-6 via mXylyl(4)) [R3125] | > 100
Ac-YENY[dW]EYP[Phg][Nva]-NH2 (SMILES CCC[C@H](NC(=O)[C@@H](NC(=O)[C@@H]1CCCN1C(=O)[C@H](Cc1ccc(O)cc1)NC(=O)[C@H](CCC(=O)O)NC(=O)[C@@H](Cc1c[nH]c2ccccc12)NC(=O)[C@H](Cc1ccc(O)cc1)NC(=O)[C@H](CC(N)=O)NC(=O)[C@H](CCC(=O)O)NC(=O)[C@H](Cc1ccc(O)cc1)NC(C)=O)c1ccccc1)C(N)=O) [R3119] | > 100
Ac-[Nva]C[Phg]T[Trp(7-aza)]E[Phe(3-Cl)][NMeS]AC[Nva]-NH2 (linker 2-10 via mXylyl″) [R3134] | > 5
Ac-[Nle]C[Phg]T[Trp(7-aza)]EY[NMeS]HC[Nva]-NH2 (linker 2-10 via mXylyl(4)) [R3112] | > 5
Ac-[Nva]C[Phg]T[Trp(7-aza)]EY[NMeS]H[hCys][Nva]-NH2 (linker 2-10 via pXylyl) [R3106] | > 5
Ac-[Nva]C[Phg]T[Trp(7-aza)]EY[NMeS]HGC[Nva]-NH2 (linker 2-11 via mXylyl(4) (inferred)) [R3101] | > 100
Heptanoyl-[Nva]C[dPhg]T[Trp(7-aza)]EY[NMeS]AC[Nva]-NH2 (linker 2-10 via mXylyl″; not fully specified; printed as [mXylyl(2,10)]heptanoyl-Nvl-C-(D-Phg)-T-azaTrp-E-Y-(N-Me)S-A-C-Nvl-NH2) [R3136] | > 50
Ac-[Nva]C[Phg]TW[Ala(1H-tetrazol-5-yl)]Y[NMeS]HC[Nva]-NH2 (linker 2-10 via mXylyl(3)) [R3131] | > 100

Binder | Avg. IC50, human hemolysis assay (complete human sera) [µM]
Ac-CVERFCD[Tle]YWEF-NH2 (linker 1-6 via mXylyl″) [R3138] | 0.0872
Ac-[Nva]CYE[Sar][Tle]Y[Trp(7-aza)]EC[Nva]P[Nva]-NH2 (linker 2-10 via mXylyl) [R3009] | > 100
Ac-[Nva][hCys][Phg]T[Trp(7-aza)]EY[NMeS]H[hCys][Nva]-NH2 (linker 2-10 via pXylyl) [R3108] | > 75
Ac-[Nva]C[Phg]T[Trp(7-aza)]EY[NMeS]H[hCys][Nva]-NH2 (linker 2-10 via mXylyl(4)) [R3105] | > 5
Ac-[Nva]C[Phg]T[Trp(7-aza)]EY[NMeS][dA]C[Nva]-NH2 (linker 2-10 via mXylyl″) [R3135] | > 25
Ac-[Nva]T[Phg]C[Trp(7-aza)]EY[NMeS]AC[Nva]-NH2 (linker 4-10 via mXylyl(4)) [R3111] | > 5
Ac-[Nva]C[Phg]T[Trp(7-aza)]EY[NMeS]HC[Nva]-NH2 (linker 2-10 via mXylyl) [R3012] | 0.148
Heptanoyl-C[dPhg]T[Trp(7-aza)]EY[NMeS]AC[Nva]-NH2 (linker 1-9 via mXylyl″; not fully specified; printed as [mXylyl(1,9)]heptanoyl-C-(D-Phg)-T-azaTrp-E-Y-(N-Me)S-A-C-Nvl-NH2) [R3137] | > 100
Ac-CVERFCVYWEF-NH2 (linker 1-6 via mXylyl(4)) [R3124] | > 100
Ac-[Nva]CYNN[Tle]ECEYP[Phg][Tle]-NH2 (cysteine pairing not given here) [R3128] | > 100
Ac-[Nva]CYE[Sar][Tle]Y[Trp(7-aza)]E[Nva][Nva]PC-NH2 (linker 2-13 via mXylyl) [R3010] | > 100
Ac-[Nva]C[Tiq1c(1S)]T[Trp(7-aza)]EY[NMeS]HC[Nva]-NH2 (linker 2-10 via mXylyl(3)) [R3122] | > 50
Ac-YEN[Tle]Y[Trp(1-Me)]EYP[Phg][Nva]-NH2 (SMILES CCC[C@H](NC(=O)[C@@H](NC(=O)[C@@H]1CCCN1C(=O)[C@H](Cc1ccc(O)cc1)NC(=O)[C@H](CCC(=O)O)NC(=O)[C@H](Cc1cn(C)c2ccccc12)NC(=O)[C@H](Cc1ccc(O)cc1)NC(=O)[C@@H](NC(=O)[C@H](CC(N)=O)NC(=O)[C@H](CCC(=O)O)NC(=O)[C@H](Cc1ccc(O)cc1)NC(C)=O)C(C)(C)C)c1ccccc1)C(N)=O) [R3110] | 2.94
Ac-[Nva]CYKNYH[Trp(7-aza)]EYP[Tle]Y-NH2 (SMILES CCC[C@H](NC(C)=O)C(=O)N[C@@H](CS)C(=O)N[C@@H](Cc1ccc(O)cc1)C(=O)N[C@@H](CCCCN)C(=O)N[C@@H](CC(N)=O)C(=O)N[C@@H](Cc1ccc(O)cc1)C(=O)N[C@@H](Cc1c[nH]cn1)C(=O)N[C@@H](Cc1c[nH]c2ncccc12)C(=O)N[C@@H](CCC(=O)O)C(=O)N[C@@H](Cc1ccc(O)cc1)C(=O)N1CCC[C@H]1C(=O)N[C@H](C(=O)N[C@@H](Cc1ccc(O)cc1)C(N)=O)C(C)(C)C) [R3000] | > 10
Ac-CVERFCDVYWEYP-NH2 (linker 1-6 via mXylyl″) [R3140] | 0.0179
Ac-[Nva][hCys][Phg]T[Trp(7-aza)]EY[NMeS]HC[Nva]-NH2 (linker 2-10 via pXylyl) [R3104] | > 2
Ac-C[Tle]ERFCD[Tle]YWEF-NH2 (linker 1-6 via mXylyl″) [R3139] | 0.0972

Reference: patent publication US11535650 (RA PHARMACEUTICALS, dated 2022)
